Consider seven molecules from patent US20240294632A1 (XL PROTEIN, published 2024).

Where a chain is given by its changes, count along the chain named.

For assay [1], the target named is T1, PAS #1(200)-IL1Ra.
T1 construct: PASylated fusion protein produced in E. coli; Biotinylated for the SPR measurements with Fabs
Kind of assay: SPR, biotinylated antigen on CAPture chip, Fab as analyte, 1:1 model. In general terms: SPR reads the build-up and loss of mass on a sensor chip optically.

Another assay deals with T2, P/A #1 sequence.
T2 construct: in sentences on specificity it stands for P/A #1 polypeptides in general
T2 peptide: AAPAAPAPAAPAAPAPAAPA
Kind of assay: ELISA and SPR with Fabs. Background: An ELISA detects its analyte on a solid surface through an enzyme-linked reagent.

Assay [2] has as its target T3, PAS #1(600)-Leptin.
T3 chain: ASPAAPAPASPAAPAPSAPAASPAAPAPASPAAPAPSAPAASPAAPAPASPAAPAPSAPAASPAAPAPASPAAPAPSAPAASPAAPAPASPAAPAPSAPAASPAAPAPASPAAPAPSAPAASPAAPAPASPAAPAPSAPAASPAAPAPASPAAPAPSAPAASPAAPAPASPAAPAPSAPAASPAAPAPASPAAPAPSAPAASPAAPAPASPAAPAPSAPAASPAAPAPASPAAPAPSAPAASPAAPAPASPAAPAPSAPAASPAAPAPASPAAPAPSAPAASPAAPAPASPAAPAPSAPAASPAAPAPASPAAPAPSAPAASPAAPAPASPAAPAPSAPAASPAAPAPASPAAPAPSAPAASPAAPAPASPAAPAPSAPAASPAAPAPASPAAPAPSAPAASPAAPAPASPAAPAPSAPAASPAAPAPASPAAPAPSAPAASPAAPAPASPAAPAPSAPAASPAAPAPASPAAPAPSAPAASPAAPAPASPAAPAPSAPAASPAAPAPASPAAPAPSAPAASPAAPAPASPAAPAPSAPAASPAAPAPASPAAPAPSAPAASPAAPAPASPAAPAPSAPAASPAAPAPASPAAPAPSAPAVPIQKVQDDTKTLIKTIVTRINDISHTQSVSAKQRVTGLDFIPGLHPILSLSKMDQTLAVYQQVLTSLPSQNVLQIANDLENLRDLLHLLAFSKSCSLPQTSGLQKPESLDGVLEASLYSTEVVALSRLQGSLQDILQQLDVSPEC
The assay is described as follows: ELISA, Fab titrated on coated PAS#1(600)-Leptin.

Assay [3] deals with T3, PAS #1(600)-Leptin. The assay is described as follows: ELISA, antigen coated, Fab titrated.
Another assay deals with P/A#1(600)-GMCSF. Kind of assay: ELISA, Fab titrated on P/A#1(600)-GMCSF (x axis: Fab concentration).
Chain of P/A#1(600)-GMCSF (fusion protein, as listed by the source): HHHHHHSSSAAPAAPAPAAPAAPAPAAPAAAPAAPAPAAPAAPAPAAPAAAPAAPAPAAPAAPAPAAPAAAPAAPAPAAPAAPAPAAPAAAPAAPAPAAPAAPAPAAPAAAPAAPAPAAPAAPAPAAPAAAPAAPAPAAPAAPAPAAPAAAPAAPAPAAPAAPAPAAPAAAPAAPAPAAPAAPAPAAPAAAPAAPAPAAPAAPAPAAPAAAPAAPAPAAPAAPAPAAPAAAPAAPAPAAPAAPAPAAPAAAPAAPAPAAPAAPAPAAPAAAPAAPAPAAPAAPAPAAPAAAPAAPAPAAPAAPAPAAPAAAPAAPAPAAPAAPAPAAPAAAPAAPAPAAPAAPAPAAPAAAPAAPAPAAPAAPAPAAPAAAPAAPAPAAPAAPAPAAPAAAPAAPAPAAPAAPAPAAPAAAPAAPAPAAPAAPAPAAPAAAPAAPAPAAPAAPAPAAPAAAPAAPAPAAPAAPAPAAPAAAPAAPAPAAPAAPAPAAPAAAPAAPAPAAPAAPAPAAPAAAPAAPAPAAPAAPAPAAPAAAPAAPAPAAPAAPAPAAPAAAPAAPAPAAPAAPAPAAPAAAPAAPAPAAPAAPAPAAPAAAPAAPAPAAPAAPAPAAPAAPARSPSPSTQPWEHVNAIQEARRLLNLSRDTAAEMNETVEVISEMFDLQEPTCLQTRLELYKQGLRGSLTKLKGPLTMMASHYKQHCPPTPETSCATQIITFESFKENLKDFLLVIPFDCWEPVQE
Assay [4] addresses T3, PAS #1(600)-Leptin. Kind of assay: ELISA, Fab titrated on PAS#1(600)-Leptin (x axis: Fab concentration).
The target in assay [5] is T4, P/A #1(200)-IL1Ra.
T4 construct: PASylated fusion protein produced in E. coli; Biotinylated for the SPR measurements with Fabs
The assay is described as follows: SPR, biotinylated antigen on CAPture chip, Fab as analyte, 1:1 model.

A further assay has as its target T5, P/A #1(600) polypeptide.
T5 chain: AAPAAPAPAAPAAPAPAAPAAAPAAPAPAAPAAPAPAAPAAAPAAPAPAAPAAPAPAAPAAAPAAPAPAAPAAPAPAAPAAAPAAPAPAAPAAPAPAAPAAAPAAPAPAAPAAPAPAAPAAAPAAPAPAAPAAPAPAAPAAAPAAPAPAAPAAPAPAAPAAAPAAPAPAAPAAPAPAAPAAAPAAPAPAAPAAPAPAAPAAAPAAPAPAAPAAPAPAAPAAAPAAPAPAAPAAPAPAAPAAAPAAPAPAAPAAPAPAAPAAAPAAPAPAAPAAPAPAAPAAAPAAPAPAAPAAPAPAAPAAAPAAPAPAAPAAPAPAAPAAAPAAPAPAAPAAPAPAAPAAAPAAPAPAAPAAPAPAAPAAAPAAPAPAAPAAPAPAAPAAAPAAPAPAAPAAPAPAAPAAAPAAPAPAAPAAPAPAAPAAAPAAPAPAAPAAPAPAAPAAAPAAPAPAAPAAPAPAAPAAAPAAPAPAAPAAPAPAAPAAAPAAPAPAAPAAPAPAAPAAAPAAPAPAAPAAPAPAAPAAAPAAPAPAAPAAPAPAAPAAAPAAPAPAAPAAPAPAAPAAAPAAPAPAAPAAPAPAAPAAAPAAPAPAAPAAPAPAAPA
Kind of assay: ELISA, antigen coated, Fab titrated.

The next assay addresses IL1Ra-PAS#1(800). The assay is described as follows: ELISA, Fab titrated on IL1Ra-PAS#1(800) (x axis: Fab concentration).
The target of assay [6] is T1, PAS #1(200)-IL1Ra. Kind of assay: SPR, MAb from hybridoma supernatant captured by anti-mouse antibody, antigen as analyte, bivalent analyte model.
Assay [7] has as its target T4, P/A #1(200)-IL1Ra. The assay is described as above.
A further assay deals with T6, IL1Ra (Kineret/Anakinra) (UniProt P18510 26-177).
T6 construct: Commercial drug product; also called non-PASylated protein version
T6 sequence (P18510 26-177 limits assumed): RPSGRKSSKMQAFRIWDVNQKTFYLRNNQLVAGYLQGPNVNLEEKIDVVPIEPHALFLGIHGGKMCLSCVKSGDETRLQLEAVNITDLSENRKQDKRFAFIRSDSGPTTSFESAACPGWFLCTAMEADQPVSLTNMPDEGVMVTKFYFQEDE
Kind of assay: western blot, hybridoma supernatant 1:2000. On the technique in general: Immunoblotting shows a protein as a band on a membrane.

The next assay concerns the target T7, hu4D5-P/A #1(200).
T7 construct: Detected with anti-human kappa light chain antibody in the capture ELISA
Kind of assay: MAb capture ELISA, hybridoma supernatant on anti-mouse IgG Fc, antigen titrated.

Assay [8] has as its target T8, recombinant Galectin-3 carrying a C173T mutation and a C-terminal Strep-tag II (Homo sapiens (Human), UniProt P17931 2-250).
T8 construct: the wording would also allow that it is the Strep-tag II alone
Kind of assay: SPR, PAS-Fab captured by MAb 1.1, Galectin-3 as analyte, single cycle kinetics, 1:1 Langmuir model.

The target of the next assay is T9, APSA(200)-TrxA.
T9 construct: Biotinylated and immobilised on a biotin CAPture chip; also called thioredoxinA-APSA(200)
Kind of assay: SPR, biotinylated antigen on CAPture chip, Fab as analyte, 1:1 model.

Assay [9] deals with T10, APSA(200)-IL1Ra.
T10 construct: Fusion protein produced in E. coli; Labelled with DIG-NHS in the MAb capture ELISA
Kind of assay: ELISA, antigen coated, Fab titrated.

Assay [10] concerns the target T10, APSA(200)-IL1Ra. The assay is described as follows: SPR, MAb from hybridoma supernatant captured by anti-mouse antibody, antigen as analyte, bivalent analyte model.
A further assay deals with T11, hu4D5-PAS #1(200).
T11 construct: Detected with anti-human kappa light chain antibody in the capture ELISA
Kind of assay: MAb capture ELISA, hybridoma supernatant on anti-mouse IgG Fc, antigen titrated.

Assay [11] concerns the target T10, APSA(200)-IL1Ra. The assay is described as follows: MAb capture ELISA, hybridoma supernatant on anti-mouse IgG Fc, DIG-labelled antigen titrated.

T8 sequence (P17931 other isoform, or with tags, fused parts or gaps C173T C173T limits assumed): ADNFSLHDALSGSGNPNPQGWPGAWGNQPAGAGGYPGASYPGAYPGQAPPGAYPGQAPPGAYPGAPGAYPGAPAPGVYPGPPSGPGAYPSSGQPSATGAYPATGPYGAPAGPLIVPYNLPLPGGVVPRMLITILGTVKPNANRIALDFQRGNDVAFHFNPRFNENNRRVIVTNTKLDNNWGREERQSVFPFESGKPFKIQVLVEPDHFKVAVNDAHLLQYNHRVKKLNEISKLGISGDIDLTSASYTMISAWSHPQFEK
T1 sequence (chain, as listed by the source limits assumed): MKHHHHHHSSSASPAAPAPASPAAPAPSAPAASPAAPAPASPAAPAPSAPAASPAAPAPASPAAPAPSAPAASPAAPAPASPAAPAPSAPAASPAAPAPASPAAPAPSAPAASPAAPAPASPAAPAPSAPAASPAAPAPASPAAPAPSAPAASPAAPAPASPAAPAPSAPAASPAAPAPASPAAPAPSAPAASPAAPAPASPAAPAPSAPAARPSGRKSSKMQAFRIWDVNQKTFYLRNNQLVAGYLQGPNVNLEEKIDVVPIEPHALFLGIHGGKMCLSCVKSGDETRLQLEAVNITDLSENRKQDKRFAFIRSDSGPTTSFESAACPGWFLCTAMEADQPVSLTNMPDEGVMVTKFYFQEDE
Chain of IL1Ra-PAS#1(800) (chain, as listed by the source): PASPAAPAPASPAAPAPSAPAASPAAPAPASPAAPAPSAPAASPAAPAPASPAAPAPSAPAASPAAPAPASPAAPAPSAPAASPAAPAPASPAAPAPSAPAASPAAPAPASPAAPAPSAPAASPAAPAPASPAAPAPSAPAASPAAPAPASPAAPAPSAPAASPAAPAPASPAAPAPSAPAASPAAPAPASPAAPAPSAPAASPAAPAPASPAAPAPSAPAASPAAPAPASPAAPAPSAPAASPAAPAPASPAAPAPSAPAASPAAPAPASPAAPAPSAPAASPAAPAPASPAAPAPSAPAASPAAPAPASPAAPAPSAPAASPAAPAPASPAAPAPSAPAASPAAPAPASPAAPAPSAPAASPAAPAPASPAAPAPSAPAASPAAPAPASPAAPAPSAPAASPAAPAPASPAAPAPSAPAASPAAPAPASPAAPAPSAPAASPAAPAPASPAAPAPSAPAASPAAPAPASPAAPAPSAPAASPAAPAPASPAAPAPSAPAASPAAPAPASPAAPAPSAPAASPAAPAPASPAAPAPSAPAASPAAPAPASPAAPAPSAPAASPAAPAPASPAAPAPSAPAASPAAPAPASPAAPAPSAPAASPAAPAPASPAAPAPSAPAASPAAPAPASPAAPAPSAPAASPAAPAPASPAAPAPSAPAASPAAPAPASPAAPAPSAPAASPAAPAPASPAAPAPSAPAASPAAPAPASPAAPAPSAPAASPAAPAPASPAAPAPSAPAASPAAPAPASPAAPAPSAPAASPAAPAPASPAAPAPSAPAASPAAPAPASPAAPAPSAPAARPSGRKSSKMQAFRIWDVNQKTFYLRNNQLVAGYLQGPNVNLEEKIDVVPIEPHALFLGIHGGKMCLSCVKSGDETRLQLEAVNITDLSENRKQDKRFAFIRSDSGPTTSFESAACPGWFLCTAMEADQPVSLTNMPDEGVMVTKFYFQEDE

B1: Fab fragment of Anti-PA(S) MAb 1.1 (Fab, V domains shown)
VH: QVQLKESGPGLVAPSQSLSITCTVSGFSLTGYGVNWVRQPPGKGLEWLGMIWGDGITDYNSALKSRLSISKDNSKSQVFLKMNSLQTDDTARYYCARDYYGRRYYAMDYWGQGTSVTVSS
VL: DIVLTQSPASLAVSLGQRATISCRASKSVSSSGYNYMFWYQQKPGQPPKLLIYLASNLESGVPDRFWGSGSGTDFTLNIHPVEEEDAATYYCQHSRELPLTFGAGTKLELKR
notes: flanking restriction sites were introduced for subcloning; also called Anti-PA(S) MAb 1.1 Fab; anti-PAS #1 Fab
A word on the EC50 (read off the curve): it is the midpoint of the concentration-response curve. Read a high EC50 (read off the curve) as a less potent agent. As to B1, the values for the Kd with PAS #1(200)-IL1Ra [1] and with PAS #1(600)-Leptin [3] were 8800 nM and 23 nM, respectively. In addition, the binding result in the assay with P/A #1 sequence is “no binding”. The “EC50 (read off the curve)” value in the assay with PAS #1(600)-Leptin [2] was about 10 nM.

B2: Fab fragment of Anti-PA(S) MAb 2.1 (Fab, V domains shown)
VH: QVTLKESGPGILQPSQTLSLTCSFSGFSLSTYDMGVGWIRQPSGKGLEWLANIWWNDNKYYNSALKSRLTISKDTSNNQVFLKISSVDATDTATYYCAQMRDNYGVWFAFWGQGTLVTVSA
VL: DIVMSQSPSSLAVSVGEKVTMSCKSSQSLFYSNREKNYLAWYQQKPGQSPKLLIYWASTRESGVPDRFTGSGSGTDFTLTISNVKAEDLAVYYCQQYYNYPTFGAGTKLELKR
notes: also called Anti-PA(S) MAb 2.1 Fab; anti-P/A #1 Fab
Turning to B2, the entries for the half-maximal effective concentration (EC50 (read off the curve)) in the assay with P/A#1(600)-GMCSF, in the assay with PAS #1(600)-Leptin [4] and with IL1Ra-PAS#1(800) were about 1 nM, about 2 nM and about 2 nM, respectively. In addition, the Kd with PAS #1(200)-IL1Ra [1] is 4.4 nM; with P/A #1(200)-IL1Ra [5] it was 648 nM; with PAS #1(600)-Leptin [3], 2.2 nM; with P/A #1(600) polypeptide, 2 nM.

B3: Fab fragment of Anti-PA(S) MAb 2.2 (Fab, V domains shown)
VH: QVTLKESGPGILQPSQTLSLTCSFSGFSLNTYGMGVGWIRQPSGKGLEWLANIWWTDDKYYNSVLKSRLTISKDTFNNQVFLKISSVDTADTATYYCAQLAYHDNPWFAYWGQGTLVTVSA
VL: B2 VL with M21L, F30L, R34N, E35Q, N83S, A105G, L111I
notes: also called Anti-PA(S) MAb 2.2 Fab; anti-P/A #1 MAb 2.2 Fab
B3: the results for the Kd with P/A #1(200)-IL1Ra [5] and in the assay with P/A #1(600) polypeptide were 7000 nM and 8 nM, respectively.

B4: Anti-PA(S) MAb 2.2 (antibody, V domains shown)
VH: B3 VH
VL: B2 VL with M21L, F30L, R34N, E35Q, N83S, A105G, L111I
notes: Mouse monoclonal IgG from hybridoma (culture supernatant); also called 3F3E2
Turning to B4, the Kd with PAS #1(200)-IL1Ra [6] came out at 22 nM; in the assay with P/A #1(200)-IL1Ra [7], 1.1 nM; with hu4D5-P/A #1(200), 69 nM. Moreover, the binding result in the assay with IL1Ra (Kineret/Anakinra) is listed as “no binding”.

B5: anti-Galectin-PAS(200) Fab fragment (Fab)
chain 1: QIQLVQSGAEVKKPGESLKISCKVSGYTFTDYAIHWVRQMPGKGLKWMGWINTYTGKPIYADDFKGQVIISLDKSINTAYLQWSSLKASDTAIYYCARGTMMASLDYWGQGTTVTVSSASTKGPSVFPLAPSSKSTSGGTAALGCLVKDYFPEPVTVSWNSGALTSGVHTFPAVLQSSGLYSLSSVVTVPSSSLGTQTYICNVNHKPSNTKVDKKVEPKSCHHHHHH
chain 2: DVVMTQSPSSLSASVGDRVTITCKSSQSLVHSDGKTYLSWIQQKPGKAPKGLIYLVSKLDSGVPSRFSGSGSETDFTLTISSLQPEDSATYYCWQATHFPLTFGPGTKLEIKRTVAAPSVFIFPPSDEQLKSGTASVVCLLNNFYPREAKVQWKVDNALQSGNSQESVTEQDSKDSTYSLSSTLTLSKADYEKHKVYACEVTHQGLSSPVTKSFNRGECASPAAPAPASPAAPAPSAPAASPAAPAPASPAAPAPSAPAASPAAPAPASPAAPAPSAPAASPAAPAPASPAAPAPSAPAASPAAPAPASPAAPAPSAPAASPAAPAPASPAAPAPSAPAASPAAPAPASPAAPAPSAPAASPAAPAPASPAAPAPSAPAASPAAPAPASPAAPAPSAPAASPAAPAPASPAAPAPSAPAA
notes: also called PASylated humanized anti-Galectin Fab fragment; PAS-Fab
By koff is commonly meant a measure of how fast the partners let go of each other. What is called kon is the rate constant with which the complex forms. As to B5, in [8], the Kd came to 0.0038 nM, the off-rate constant (koff) came out at 3e-05 s⁻¹ and the kon stood at 7.9e+06 M⁻¹ s⁻¹.

B6: Fab fragment of Anti-PA(S) MAb 3.2 (Fab, V domains shown)
VH: QVQLQQSGAELVRPGASVKLSCKALGYTFTDYEMFWVKQTPVHGLECIGTIHPGSGGTAYNQKFKGKATLTADKSSSTAYMELSSLTSEDSAVYYCTRNDRGSWGQGTTLTVSS
VL: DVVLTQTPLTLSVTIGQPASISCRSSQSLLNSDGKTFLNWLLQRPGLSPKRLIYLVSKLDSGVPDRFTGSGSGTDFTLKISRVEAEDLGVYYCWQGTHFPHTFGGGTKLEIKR
notes: also called Anti-PA(S) MAb 3.2 Fab; anti-APSA antibody fragment
Regarding B6, the Kd with P/A #1(200)-IL1Ra [5] stood at 446 nM; with APSA(200)-TrxA, 137 nM; in the assay with PAS #1(600)-Leptin [3] it was 311 nM; with P/A #1(600) polypeptide, 48 nM; with APSA(200)-IL1Ra [9], 1.6 nM.

B7: Anti-PA(S) MAb 3.2 (antibody, V domains shown)
VH: B6 VH
VL: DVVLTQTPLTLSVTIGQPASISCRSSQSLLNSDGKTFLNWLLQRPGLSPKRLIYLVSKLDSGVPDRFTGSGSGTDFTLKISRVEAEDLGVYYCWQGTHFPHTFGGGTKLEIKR
notes: Mouse monoclonal IgG from hybridoma (culture supernatant)
With B7, the Kd was 0.108 nM with APSA(200)-IL1Ra [10]; 20 nM in the assay with P/A #1(200)-IL1Ra [7]; 0.4 nM in the assay with hu4D5-P/A #1(200); 294 nM with hu4D5-PAS #1(200); 0.251 nM with APSA(200)-IL1Ra [11]. The binding result with IL1Ra (Kineret/Anakinra) is on record as “no binding”.
